The subject of this data set is Escherichia coli TOP10. The experiment in a line: shrunken log2 fold change of peptide-encoding DNA abundance (4.5 h post-induction vs induction); higher = less antimicrobial activity (less host growth inhibition). The note with it: time post-induction: 4.5 h; library: site-saturation at positions 5, 18, 19, 20.
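Note: peptides expressed intracellularly from a pBAD plasmid library in pooled LB shake-flask culture, induced with 0.3% L-arabinose, DNA abundance read by NGS, three biological replicates, DESeq2 with apeglm shrinkage.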

With RRIRPRPPRLPRPRPRPQRDPRP, the “shrunken log2 fold change” value was 0.116. Under RRIRMRPPRLPRPRPRPHTCPRP stands -0.0858; under RRIRDRPPRLPRPRPRPSLDPRP, -0.0616; under RRIRNRPPRLPRPRPRPFFEPRP, -0.0529.

As for RRIRMRPPRLPRPRPRPICKPRP, the “shrunken log2 fold change” value was -0.0206. The same measure for RRIRMRPPRLPRPRPRPTFWPRP: 0.916; for RRIRPRPPRLPRPRPRPRSMPRP: 0.0858; for RRIRWRPPRLPRPRPRPVLAPRP: 0.582.

For the sequence RRIRARPPRLPRPRPRPDDQPRP, the “shrunken log2 fold change” value was 1.41. Under RRIRGRPPRLPRPRPRPEDNPRP stands 0.892; under RRIRFRPPRLPRPRPRPIGPPRP, 0.0274. The same measure for RRIRLRPPRLPRPRPRPEDRPRP: -0.0181. Under RRIRTRPPRLPRPRPRPMFMPRP stands 0.000513; under RRIRARPPRLPRPRPRPGQMPRP, 0.0151. As to RRIRQRPPRLPRPRPRPDAEPRP, the “shrunken log2 fold change” value came out at 0.105. The same measure for RRIRNRPPRLPRPRPRPSEYPRP: -0.386; for RRIRVRPPRLPRPRPRPWWAPRP: -0.0894; for RRIRTRPPRLPRPRPRPYPTPRP: -0.374.

Consider RRIRYRPPRLPRPRPRPYTCPRP, for which the “shrunken log2 fold change” value was -0.00145. Under RRIRWRPPRLPRPRPRPWYNPRP stands -0.119.

As for RRIRPRPPRLPRPRPRPGMFPRP, the “shrunken log2 fold change” value is -0.0259. Under RRIRPRPPRLPRPRPRPYYDPRP stands -0.745.

Consider RRIRARPPRLPRPRPRPFCGPRP, for which the “shrunken log2 fold change” value is -0.0184. The same measure for RRIRKRPPRLPRPRPRPNHNPRP: -0.382; for RRIRARPPRLPRPRPRPILGPRP: 0.0597; for RRIRDRPPRLPRPRPRPYCLPRP: -0.0759. Consider RRIRMRPPRLPRPRPRPCKKPRP, for which the “shrunken log2 fold change” value turned out to be 0.106. The same measure for RRIRFRPPRLPRPRPRPNENPRP: 0.00257. The same measure for RRIRCRPPRLPRPRPRPFLKPRP: -0.639; for RRIRVRPPRLPRPRPRPDRMPRP: -0.268; for RRIRGRPPRLPRPRPRPGDQPRP: 0.777. Take RRIRWRPPRLPRPRPRPVISPRP: the “shrunken log2 fold change” value is -0.0992. Take RRIRNRPPRLPRPRPRPRCKPRP: the “shrunken log2 fold change” value came to 0.0547. The same measure for RRIRVRPPRLPRPRPRPDGAPRP: 0.413; for RRIRTRPPRLPRPRPRPNFYPRP: -0.186.

Take RRIRVRPPRLPRPRPRPGFNPRP: the “shrunken log2 fold change” value is -0.0909.

As to RRIRWRPPRLPRPRPRPVNDPRP, the “shrunken log2 fold change” value amounted to 0.118. Under RRIRKRPPRLPRPRPRPCYQPRP stands -0.42; under RRIRWRPPRLPRPRPRPSRGPRP, 0.532; under RRIRLRPPRLPRPRPRPHPPPRP, 1.

As to RRIRIRPPRLPRPRPRPQTAPRP, the “shrunken log2 fold change” value came out at 0.101. The same measure for RRIRPRPPRLPRPRPRPWITPRP: -0.469; for RRIRDRPPRLPRPRPRPMRYPRP: 0.104. Under RRIRLRPPRLPRPRPRPWFSPRP stands -0.225; under RRIRERPPRLPRPRPRPNPEPRP, -0.0358. Under RRIRSRPPRLPRPRPRPPFSPRP stands -0.217. On to RRIRSRPPRLPRPRPRPEDCPRP, for which the “shrunken log2 fold change” value was 0.0867. Under RRIRERPPRLPRPRPRPAEHPRP stands -0.0237; under RRIRGRPPRLPRPRPRPWHRPRP, 0.0496.

As for RRIRWRPPRLPRPRPRPMAKPRP, the “shrunken log2 fold change” value was 0.148.

As for RRIRARPPRLPRPRPRPWRHPRP, the “shrunken log2 fold change” value was 0.333.

In the case of RRIRFRPPRLPRPRPRPKYCPRP, the “shrunken log2 fold change” value worked out at 0.124. As to RRIRLRPPRLPRPRPRPTKEPRP, the “shrunken log2 fold change” value is -0.0767.

With RRIRCRPPRLPRPRPRPRSKPRP, the “shrunken log2 fold change” value was found to be 0.0908.

Turning to RRIRHRPPRLPRPRPRPKNYPRP, the “shrunken log2 fold change” value was -0.766.

With RRIRSRPPRLPRPRPRPLIPPRP, the “shrunken log2 fold change” value was -0.324. The same measure for RRIRHRPPRLPRPRPRPVDSPRP: -0.175. The same measure for RRIRWRPPRLPRPRPRPLYQPRP: -0.363; for RRIRFRPPRLPRPRPRPMLLPRP: -0.128; for RRIRMRPPRLPRPRPRPTEVPRP: 0.598. The same measure for RRIRRRPPRLPRPRPRPLFWPRP: 0.472; for RRIRQRPPRLPRPRPRPWQLPRP: -0.0199; for RRIRPRPPRLPRPRPRPHDWPRP: -0.0184.

Source of the values: the supplement of paper PMC9112550, “Optimization of the antimicrobial peptide Bac7 by deep mutational scanning” (BMC Biology, 2022).
